This is an account of results in US6576753B1, “DNA encoding human leukotriene C4 synthase” (The Brigham and Women's Hospital, Inc., priority 1994, dated 2003).

Broadly, the Km is the substrate concentration at which the rate is half of its maximum.

For data set [1], the target named is T1, LTC4 synthase (Homo sapiens, UniProt Q16873).
T1 construct: expressed in transfected cells; host or cells: COS-7 cells (pcDNA3 clone from KG-1 library), cell lysate
T1 sequence (Q16873 1-150): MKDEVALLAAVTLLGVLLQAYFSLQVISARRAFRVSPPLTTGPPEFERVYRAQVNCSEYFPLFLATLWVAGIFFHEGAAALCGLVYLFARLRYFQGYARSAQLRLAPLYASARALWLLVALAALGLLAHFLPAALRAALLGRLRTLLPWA
As to the kind of experiment: Dose-response assay using MK886: conversion of LTA4-ME to LTC4-ME by lysates of transfected COS-7 cells. It is filed as biochemical. The procedure: After 2.8 min more, solvent B was increased linearly to 90% over 2 min and was maintained at this level for an additional 10 min. UV absorbance at 280 nm and the UV spectra were recorded simultaneously. The retention times for PGB2 and LTC4-ME were 8.5 and 10.1 min, respectively.
DOSE-RESPONSE ASSAY USING MK886: Cell lysates of the COS-7 cell transfectant containing SEQ ID NO.:1 were incubated with 20 micromolar LTA4-ME, 20 mM GSH, 5 mM MgCl2 in HEPES buffer (pH 7.6), in the presence of 0-10 micromolar MK886 for 10 minutes at room temperature. Reactions were stopped by addition of 2 volumes of methanol containing 200 ng PGB2. Samples were analyzed by RP-HPLC.

Data set [2] deals with T1, LTC4 synthase. Conditions: high doses; Lam et al.; cited from earlier work.
Data set [3] is described as follows: Binding of mutant protein to S-hexyl GSH agarose column. Conditions: eluted with probenecid. The protocol:
(§1) PURIFICATION AND KINETIC ANALYSIS OF SELECTED EXPRESSED PROTEINS: Recombinant LTC4 synthases were purified by S-hexyl GSH agarose affinity chromatography (Lam et al., Eur. J. Biochem., 238:606, 1996). Solubilized microsomes were loaded onto a 2.5-cm×1.5-cm open bed of S-hexyl GSH resin equilibrated with 50 mM HEPES, 1 mM EDTA, 5 mM β-mercaptoethanol, 0.1% Triton X-102, 10% glycerol, pH 7.6 (Buffer A) at 4° C. The column was washed sequentially with 5 volumes each of buffer A/0.3 M NaCl/20 mM GSH/0.1% DOC, buffer A/2.5 mM S-hexyl GSH/2.5 mM S-octyl GSH/0.1% DOC, and buffer A/0.1% DOC; and the enzyme was eluted with 5 fractions of 1 volume each of 15 mM probenecid in buffer A containing 0.1% DOC. The enzyme was purified nearly to homogeneity as determined by the presence in silver stained SDS-PAGE gels of a predominant 18-kDa protein band with a minor 34-kDa band; only the 18-kDa band interacted with anti-LTC4 synthase antibody on immunoblot analysis. After sequential concentration and dilution with a Microsep 10K centrifugal concentrator (Filtron Technology Corp., Northborough, Mass.) to remove probenecid, the protein concentration was estimated by staining a SDS-PAGE gel of the purified enzyme and a standard amount of lysozyme resolved in the same gel with Coomassie blue dye and comparing their intensities.

Data set [4] deals with LTC4 synthase. The experiment in a line: Conjugation of LTA4-ME with GSH by solubilized microsomes of COS cells transfected with wild-type or mutant LTC4 synthase. Conditions: for Function / Km: COS cell microsome; for conjugation function of transfected COS cell microsomes: compared to wild-type construct.
Protocol: OF THE EXPRESSED PROTEINS: COS-7 cells were transfected with either wild-type LTC4 synthase cDNA or the mutated LTC4 synthase cDNA by DEAE-dextran transfection (Lam et al., Proc. Natl. Acad. Sci. USA., 91:7663, 1994). Three days after transfection, the cells were harvested by treatment with trypsin and suspended in microsomal buffer (50 mM HEPES buffer pH 7.9 containing 2 mM EDTA and 10 mM β-mercaptoethanol) at a concentration of 5×10^6 cells/ml. The cells were lysed by sonication with a Branson microtip sonicator (Danbury, Conn.) at a setting of 7. Cell lysates were centrifuged at 100,000×g for 60 min at 4° C., and the pellets (microsomes) were resuspended in microsomal buffer and were solubilized by the addition of 0.4% Triton X-102, 0.4% sodium deoxycholate (DOC), and 10% glycerol and stirring at 4° C. for 45 min.
The function of each mutant enzyme as well as the wild-type enzyme was first screened by the incubation of 1-10 μl of solubilized COS cell microsomes with 10 mM GSH and 20 μM LTA4-ME in 200 μl 50 mM HEPES buffer containing 10 mM MgCl2, pH 7.6. The reactions were carried out at room temperature for 10 min and stopped by the addition of 3 vol methanol containing 200 ng prostaglandin B2 (PGB2) as an internal standard. LTC4-ME levels in the samples were determined with high performance liquid chromatography (HPLC).
Reverse phase (RP)-HPLC was carried out with a model 126 dual pump system and model 167 scanning UV detector (Beckman Instruments) controlled by an Gateway 2000 P4D66 computer equipped with Beckman System Gold software. Samples were applied to a 5-μm 4.6×250-mm C18 Ultrasphere reverse phase column (Beckman Instruments) equilibrated with a solvent of methanol/acetonitrile/water/acetic acid (10:15:100:0.2, v/v), pH 6.0 (solvent A). Immediately after the sample was injected, the column was eluted at a flow rate of 1 ml/min with a programmed concave gradient (System Cold curve 6) to 20% solvent A and 80% solvent B (pure methanol) over 0.2 min with continuation isocratically for 5.8 min. Beginning at 6 min, solvent B was increased linearly to 100% over 0.2 min and was maintained at this level for 7 min more. The ultraviolet absorbance at 280 nm and the ultraviolet spectra were recorded simultaneously. The retention times for PGB2 and LTC4-ME were 7.4 and 8.9 min, respectively. LTC4-ME was quantitated by calculating the ratio of the peak area to the area of the internal standard PGB2.
Data set [5] deals with LTC4 synthase. The experiment in a line: Enzyme kinetics of purified recombinant wild-type or mutant LTC4 synthase. The class given is biochemical, human. Conditions: purified recombinant enzyme. The procedure: as §1
(§2) To examine the enzyme kinetics of recombinant wild-type or mutant LTC4 synthase, 3-100 ng portions of purified enzyme were incubated in 200 μl of HEPES buffer, pH 7.6, containing 10 mM MgC'2 with either 20 μM LTA4-ME and various concentration of GSH or with 10 mM GSH and various concentrations of LTA4-ME for 2 min at room temperature. The reactions were terminated by the addition of 3 vol of methanol containing 200 ng PGB2. Samples were then analyzed for LTC4-ME by RP-HPLC.

In data set [6] the target is T2, LTC4 synthase (Homo sapiens, UniProt Q16873, Y93F).
T2 construct: made in house; host or cells: COS-7 cells
T2 sequence (Q16873 1-150 Y93F): T1 sequence (Q16873 1-150) with Y93F
The experiment in a line: Effect of pH on enzymatic conjugation by wild-type and mutant enzyme. Conditions: microsomal assay, 5-fold more Y93F. The class given is biochemical. The procedure:
The study the effect of pH on enzymatic conjugation by wild-type and mutant enzyme, 1-μl or 5-μl (Y93F) samples of solubilized COS cell microsomes were incubated with 10 μM LTA4-ME and 10 mM GSH in bis-Tris propane buffer containing 10 mM MgCl2 at various pH levels. The reactions were carried out at room temperature for 2 min and were stopped by the addition of 3 vol of methanol and 10 μl of acetic acid. Product generation was quantitated by RP-HPLC as described above.

Data set [7] has as its target T2, LTC4 synthase. The experiment in a line: Enzyme kinetics of purified recombinant wild-type or mutant LTC4 synthase. It is filed as biochemical. The protocol:
as §1, §2

Positions count from the first letter of the chain named. Like-named read-outs stand apart in the source and are kept apart here.

Take `C[C@H](C#Cc1ccc(Oc2ccc(F)cc2)o1)N(O)C(N)=O` [A79175]: the “effect on LTC4 synthase activity in COS cell lysates” value on LTC4 synthase [1] (at a concentration of 10 μM) is given as “did not affect LTC4 synthase activity”.
On to `CC(C)c1ccc2c(c1)c(SC(C)(C)C)c(CC(C)(C)C(=O)O)n2Cc1ccc(Cl)cc1` [MK-886], for which the “inhibition of LTC4 synthase activity” value on LTC4 synthase [2] is reported as “could also inhibit LTC4 synthase activity when administered at high doses”. In addition, the IC50 at LTC4 synthase [1] (20 μM LTA4-ME, COS cell lysates, read-out: IC50, inhibition of conversion of LTA4-ME to LTC4-ME) is less than 3 µM; on LTC4 synthase [1] (transfected COS cell lysates, read-out: ID50, inhibition of LTC4 synthase activity), roughly 3 µM. Further, the “inhibition of enzyme activity” value against LTC4 synthase [1] (at 10 μM) is on record as “more than 90%”.
As for R51T: LTC4 synthase point mutant, the “binding to S-hexyl GSH agarose column” value in data set [3] is given as “bound to S-hexyl GSH”. Besides, the Function in the data set with LTC4 synthase [4] is 0 % of WT. The “conjugation function of transfected COS cell microsomes” value with LTC4 synthase [4] is on record as “do not show conjugation activity”; in the data set with LTC4 synthase [4] (listed as Arg 51 to threonine), “abolished the functional activity”. The “Vmax LTC4-ME” value in the data set on LTC4 synthase [5] was “Inactive”.
Y93F: LTC4 synthase point mutant: the “pH optimum of conjugation” value with LTC4 synthase [6] is on record as “A shift in the optimum to a higher pH”. Besides, in the data set with LTC4 synthase [4], the Function was 5 % of WT. The “conjugation function of transfected COS cell microsomes” value in the data set with LTC4 synthase [4] is on record as “associated with a reduction in function”. The Km in the data set with LTC4 synthase [4] (read-out: Km GSH) is 10 mM; in the data set on LTC4 synthase [4] (read-out: Km LTA4-ME), 0.02 mM; with LTC4 synthase [5] (read-out: Km GSH), 9.9 mM; in the data set on LTC4 synthase [5] (read-out: Km LTA4-ME), 0.0054 mM. In addition, in the data set with LTC4 synthase [7] (isolated recombinant enzyme, versus wild type), the “reduction in Vmax” value is on record as “greater than 90%”. The “catalytic efficiency relative to wild-type enzyme” value with LTC4 synthase [7] (purified recombinant enzyme) was 1/260. Besides, the “Vmax LTC4-ME” value with LTC4 synthase [5] was 1.4 µmol/min/mg.
